The values below come from US20050065102, “Medicinal compositions” (published 2005).

The data set concerns the target HMG-I (HMGA1a), partially purified (Homo sapiens, UniProt P17096 P17096:2-107). Kind of data set: pulldown; affinity column, eluted with 1 M NaCl; identified by peptide sequencing. The note with it: tags: ammonium sulfate and DEAE fractions from hypoxic SK-N-SH. On the procedure:
The above fraction (III) was dialyzed twice against 5 L of 50 mM Tris-HCl buffer (pH 7.5) at 4° C. for 4 hours. Then, the resulting dialysate was applied to 5′-amino-2′-O-methyl oligo RNA (5′-[…]-3′, SEQ ID NO: 24)-coupled CNBr-activated Sepharose 4B (manufactured by Pharmacia Biotech) affinity column. The above affinity column was washed with 10 ml of the above incubation buffer and then eluted with 15 ml of the incubation buffer containing 1 M NaCl to give a fraction having a binding activity to the RNA probe of No. 5 [fraction (IV), FIG. 7 (IV)] (FIG. 9, lane 4). The result of silver staining of fraction (IV) is shown in lane 4 in FIG. 8, and the result of RNA binding assay thereof is shown in lane 4 in FIG. 9.

Chain of HMG-I (HMGA1a), partially purified (P17096 2-107, one chain of several): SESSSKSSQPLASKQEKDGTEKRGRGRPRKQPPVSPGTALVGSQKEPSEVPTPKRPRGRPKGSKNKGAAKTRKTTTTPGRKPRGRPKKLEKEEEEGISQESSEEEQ

B1: 5'-amino-2'-O-methyl oligo RNA affinity ligand (ssRNA)
RNA: AUCUUCUUGGUGGUGCUCUACAAGUACCGCUGCUACAAGGUGAGGCCCU
modifications: 2'-OMe all, 5'-amino
For B1, the binding result was “binds”.
